From the RNAGym collection of RNA variant scans (doi:10.1093/molbev/msab373)

B1: Azoarcus group I ribozyme (parent)
chain: GUGCCUUGCGCCGGGAAACCACGCAAGGGAUGGUGUCAAAUUCGGCGAAACCUAAGCGCCCGCCCGGGCGUAUGGCAACGCCGAGCCAAGCUUCGGCGCCUGCGCCGAUGAAGGUGUAGAGACUAGACGGCACCCACCUAAGGCAAACGCUAUGGUGAAGGCAUAGUCCAGGGAGUGGCGAAAGUCACACAAACCGG

Variants of: B1
Test: reverse-splicing fitness (ratio to wild type); higher = more active; in vitro selection; Mg2+ level not given
Outline: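 An in vitro group I ribozyme library with randomized positions was T7-transcribed and gel-purified. In triplicate, 10 pmol RNA in EPPS pH 7.5 was reacted with 50 pmoles of a 30-nt RNA substrate for 1 h at 37 °C across several added MgCl2 levels (1–48 mM), then stopped with EDTA. Products were reverse transcribed from a substrate-complementary primer, PCR-amplified and sequenced (HiSeq 4000). Fitness is a variant's read proportion after selection over that before, normalised to wild type.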

Row | Variant | reverse-splicing fitness
1 | C82A A120U A145C C150U C169A U176G | 0.002
2 | C82A A120U A145C C150A U176A | 0.00439
3 | C82A A120U A145C C150A U176G | 0.00246
4 | C82A A120U A145C C150A U176C | 0.0051
5 | C82A A120U A145C C150A C169U U176C | 0.00188
6 | C82A A120U A145C C150A C169U U176G | 0.00218
7 | C82A A120U A145C C150A C169U U176A | 0.00259
8 | C82A A120G A145U C150U | 0.0167
9 | C82A A120G A145U C150G | 0.00781
10 | C82A A120G A145U C150U C169A U176C | 0.0113
11 | C82A A120G A145U C150U C169A U176A | 0.013
12 | C82A A120G A145U C150U C169A U176G | 0.00418
13 | C82A A120G A145U C150A U176G | 0.00503
14 | C82A A120G A145U C150A U176C | 0.0131
15 | C82A A120G A145U C150A U176A | 0.0108
16 | C82A A120U A145G C150A C169G | 0.00494
17 | C82A A120U A145G C150A C169U | 0.00423
18 | C82A A120U A145G C150A C169A | 0.00563
19 | C82A A120U A145G C169G U176G | 0.00125
20 | C82A A120U A145G C169G U176A | 0.00295
21 | C82A A120U A145G C169G U176C | 0.00373

Row | Variant | reverse-splicing fitness
22 | C82A A120U A145G C150A C169G U176G | 0.00227
23 | C82A A120U A145G C150A C169G U176C | 0.00523
24 | C82A A120U A145G C150A C169G U176A | 0.00661
25 | C82A A120U A145G C150G C169A U176G | 0.00515
26 | C82A A120U A145G C150G C169A U176C | 0.0082
27 | C82A A120U A145G C150G C169A U176A | 0.0135
28 | C82A A120U A145U C169U U176C | 0.00276
29 | C82A A120U A145U C169U U176A | 0.00202
30 | C82A A120U A145U C169U U176G | 0.00154
31 | C82A A120G A145U C150A C169G U176G | 0.00358
32 | C82A A120G A145U C150A C169G U176A | 0.0133
33 | C82A A120G A145U C150A C169G U176C | 0.0154
34 | C82A A120U A145G C150G C169G U176C | 0.00694
35 | C82A A120U A145G C150G C169G U176A | 0.00824
36 | C82A A120U A145G C150G C169G U176G | 0.00415
37 | C82A A120U A145C U176G | 0.00979
38 | C82A A120U A145C U176C | 0.0456
39 | C82A A120U A145C U176A | 0.0307
40 | C82A A120U A145C C150A C169A U176G | 0.00198
41 | C82A A120U A145C C150A C169A U176C | 0.00238
42 | C82A A120U A145C C150A C169A U176A | 0.00185

Row | Variant | reverse-splicing fitness
43 | C82A A120U A145G C169U | 0.0064
44 | C82A A120U A145G C169A | 0.00287
45 | C82A A120U A145G C169G | 0.00528
46 | C82A A120U A145C C150A C169G | 0.00223
47 | C82A A120U A145C C150A C169A | 0.00256
48 | C82A A120U A145C C150A C169U | 0.00225
49 | C82A A120G C150U C169G U176A | 0.0162
50 | C82A A120G C150U C169G U176G | 0.00468
51 | C82A A120G C150U C169G U176C | 0.0193
52 | C82A A120U A145U C150A C169U | 0.00267
53 | C82A A120U A145U C150A C169A | 0.00213
54 | C82A A120U A145U C150A C169G | 0.00217
55 | C82A A120U A145U C150A C169U U176G | 0.00196
56 | C82A A120U A145U C150A C169U U176A | 0.00228
57 | C82A A120U A145U C150A C169U U176C | 0.0026
58 | C82A A120U C150A C169G U176A | 0.00593
59 | C82A A120U C150A C169G U176G | 0.00162
60 | C82A A120U C150A C169G U176C | 0.0032
61 | C82A A120U A145G C150A U176G | 0.00391
62 | C82A A120U A145G C150A U176C | 0.0142
63 | C82A A120U A145G C150A U176A | 0.0103

Row | Variant | reverse-splicing fitness
64 | C82A A120U A145U C150A U176C | 0.0092
65 | C82A A120U A145U C150A U176G | 0.00276
66 | C82A A120U A145U C150A U176A | 0.00611
67 | C82A A120U A145G C150U C169A U176A | 0.00597
68 | C82A A120U A145G C150U C169A U176C | 0.00287
69 | C82A A120U A145G C150U C169A U176G | 0.00195
70 | C82A A120U A145C C150G C169A U176C | 0.00155
71 | C82A A120U A145C C150G C169A U176A | 0.00254
72 | C82A A120U A145C C150G C169A U176G | 0.00213
73 | C82A A120U A145U C150U C169A U176C | 0.00272
74 | C82A A120U A145U C150U C169A U176G | 0.00171
75 | C82A A120U A145U C150U C169A U176A | 0.00275
76 | C82A A120U A145U C150A C169A U176A | 0.0022
77 | C82A A120U A145U C150A C169A U176G | 0.00186
78 | C82A A120U A145U C150A C169A U176C | 0.00188
79 | C82A A120U A145G C150G U176C | 0.0117
80 | C82A A120U A145G C150G U176A | 0.00758
81 | C82A A120U A145G C150G U176G | 0.00433
82 | C82A A120G A145U C150U C169U | 0.0133
83 | C82A A120G A145U C150U C169A | 0.013
